# Measured values from patent US20110065645A1, “Compositions and Methods for Modulating Neuron Degeneration and Neuron Guidance” (The Regents of the University of California, priority 2009, published 2011).
# T1: Fzd3 (Mus musculus, UniProt Q61086)
# T1 construct: expressed in transfected cells; host or cells: HEK293T
# T1 sequence (Q61086 23-666): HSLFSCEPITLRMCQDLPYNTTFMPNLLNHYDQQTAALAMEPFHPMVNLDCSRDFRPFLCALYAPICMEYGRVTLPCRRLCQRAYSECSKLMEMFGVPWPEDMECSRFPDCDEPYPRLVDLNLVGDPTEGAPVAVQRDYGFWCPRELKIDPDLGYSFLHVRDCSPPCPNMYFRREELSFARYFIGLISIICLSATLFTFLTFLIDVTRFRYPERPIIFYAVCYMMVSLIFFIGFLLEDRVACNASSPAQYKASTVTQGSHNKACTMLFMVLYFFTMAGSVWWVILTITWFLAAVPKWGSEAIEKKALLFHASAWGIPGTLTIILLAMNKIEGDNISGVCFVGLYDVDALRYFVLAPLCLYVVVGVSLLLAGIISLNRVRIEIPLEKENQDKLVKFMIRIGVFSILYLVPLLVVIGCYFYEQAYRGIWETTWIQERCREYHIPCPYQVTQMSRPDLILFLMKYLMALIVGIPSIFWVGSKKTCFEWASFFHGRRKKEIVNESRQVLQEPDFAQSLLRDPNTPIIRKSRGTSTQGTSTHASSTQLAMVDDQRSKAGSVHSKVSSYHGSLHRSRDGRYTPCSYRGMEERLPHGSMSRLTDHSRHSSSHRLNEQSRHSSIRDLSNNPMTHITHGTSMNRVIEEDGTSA
# Tests used:
# Assay type in all cases: cell-based
# β-catenin = β-catenin immunostaining in commissural axon growth cones; conditions: bath application; LiCl 2 mM
# Text: To understand how atypical PKC/Par pathway regulates axon guidance, we set out to determine the subcellular localization of aPKC, their substrates and downstream cellular effectors. […] Thus, our high-resolution confocal imaging detects a tendency of β-catenin being concentrated to one side of the growth cone (FIG. 9A). It is possible that there is low level of Wnt proteins in the culture (many neurons express Wnts). […] Therefore, it is also possible that intrinsic aPKC signaling can create chirality within the growth cone with out extrinsic signals. Such intrinsic polarity may then robustly regulate cellular morphology upon directional instructions from the environment such as a Wnt gradient. It is well known that GSK3β phosphorylates β-catenin, which then leads to proteosome-mediated degradation of β-catenin. And it is also known that GSK3β is phosphorylated and inhibited by PKCζ^(1,2). Therefore, inhibiting GSK3β or the proteosome activity generally should increase β-catenin level throughout the growth cone, canceling the asymmetry. […] We are now testing the hypothesis that Wnt proteins may locally activate PKCζ, which then inhibits GSK3β and locally stabilizes β-catenin, which is part of the asymmetric cellular mechanism leading to directional choice of a growth cone. We examine the localization of β-catenin in post-crossing commissural axon growth cones in the “post-crossing” assay and “open-book” assays.
# JNK = assay: Phospho-Jun immunoblot in HEK293T cells expressing Fzd3-mCherry; conditions: Wnt5a added
# Text: Vgl2 antagonizes Dvl1's feedback inhibition of Fzd3 mediated Wnt/PCP Signaling. To elucidate how core PCP components function cell autonomously, we first explored how Dvl1, Vgl2 and Fzd3 interact with each other. It is known that Dvl is a central cytoplamsic molecule in the activation of Wnt-PCP signaling. In non-canonical signaling, Fzd is thought recruit Dvl to the plasma membrane and Dvl then subsequently activates the downstream signaling, such as Jun N terminal kinases (JNK), Rac1 and RhoA. […] However, upon co-expression of Fzd3 and Dvl1, we found a surprising Wnt5a-dependent down regulation of p-Jun level (FIG. 17A, lanes 5-7, quantified in FIG. 17B), uncovering a novel feedback inhibition mechanism in PCP signaling. With 30 minutes of Wnt5a addition p-Jun signal is essentially gone in Fzd3 and Dvl1 co expressing cells, (FIG. 17A lane 7).
# Surface biotinylation and immunopreciptiation. […] For the membrane immunoprecipitation, 600 ug of protein extracts were incubated overnight and retrieved by NeutrAvidin-coated Agarose beads (Pierce), the bound fraction was boiled and loaded on SDS-PAGE gel and analyzed by western blot analysis. […]
# Fzd3 = target: T1, Fzd3; assay: Surface biotinylation and avidin immunoprecipitation of Fzd3 in HEK293T cells
# Text: Dvl and Vgl have antagonistic functions on Fzd3 phosphorylation. […] We transfected Fzd3-mCherry in HEK293T cells then surface biotinylated and immunoprecipitated (IP) the surface molecules with strepavidin-conjugated beads to obtain membrane-localized proteins. […] We tested whether these two Fzd3 bands represent phosphorylation states of the Frizzled3 protein, one being phosphorylated/hyperphosphorylated Fzd3 (p-Fzd3) and the other non-phosphorylated Fzd3. […] Phosphorylation of Fzds has been shown previously in Xenopus oocytes
# It has been proposed that Frizzled internalization is necessary for PCP signaling and phenotypes (Gagliardi et al., 2008; Yu et al., 2007). However, it has never been directly tested whether the cell surface level of Fzd, the Wnt-PCP receptor, changes upon Wnt addition. By using our surface biotinylation and immunoprecipitation with avidin, we show here, 15 minutes after Wnt addition, cell surface level of Fzd3-EGFP is diminished (FIG. 18C, Avidin IP, lane 3 anti-EGFP IB). […] This Fzd3 receptor oscillation from and to the membrane appeared to be a Wnt-Fzd specific effect because a non-Wnt binding receptor, such as the Insulin receptor stayed the same throughout the Wnt stimulation (FIG. 18C, Avidin IP, anti-Insulin Rβ IB). The Wnt-dependent Fzd3 oscillation is quantified in FIG. 18D (cross symboled line). […] In addition, PCP components appeared to effect this Wnt dependent oscillation of Fzd3 to and from the membrane. When Dvl1 is over expressed with Fzd3, we found within 30 minutes Fzd3 is unable to be internalized (FIG. 25B, lanes 5-7 and line). However, upon the introduction of Vangl2 into the transfection mix, Fzd3 oscillation is resumed (FIG. 25B, lanes 8-10 and circle symboled line).
# Surface biotinylation and immunopreciptiation. 30 hours after transfection with the indicated constructs into HEK293T cells (FuGene, Roche), followed by 8-hour incubation in Optimem and subsequent bath application of recombinant Wnt5a (R&D Systems), surface proteins were subsequently labeled on ice with 1 mg/ml of Sulfo-NHS-LC-Biotin reagent (Pierce). The cell lysates were collect over a period of 30 minutes on ice in the following lysis buffer: 20 mM Tris pH7.6, 150 mM NaCl, 1% Triton, 0.1% SDS, 2.5 mM EDTA, 2.5 mM EGTA, protease Inhibitors (Roche). For the membrane immunoprecipitation, 600 ug of protein extracts were incubated overnight and retrieved by NeutrAvidin-coated Agarose beads (Pierce), the bound fraction was boiled and loaded on SDS-PAGE gel and analyzed by western blot analysis. To visualize the input amount 20 ug of total lysate was loaded, and for the Avidin IPs the total amount was loaded for western blot analysis. The following primary antibodies were used for the immunoblots: α-Frizzled3 (Wang et al., 2006), α-Vangl2 (Santa Cruz), α-mCherry/DsRed (Clontech), α-Jun (Cell Signaling), α-phospho-Jun (Cell Signaling), α-JNK (Cell Signaling), α-phospho-JNK (Cell Signaling), α-Flag (Sigma), α-GAPDH (Chemicon), α-Insulin Rβ (Santa Cruz).
molecule,measurement,setting,value
"Wnt5a: recombinant Wnt5a protein (R&D Systems) (protein, UniProt P41221 62-380, looked up) Protein Wnt-5a: IIGAQPLCSQLAGLSQGQKKLCHLYQDHMQYIGEGAKTGIKECQYQFRHRRWNCSTVDNTSVFGRVMQIGSRETAFTYAVSAAGVVNAMSRACREGELSTCGCSRAARPKDLPRDWLWGGCGDNIDYGYRFAKEFVDARERERIHAKGSYESARILMNLHNNEAGRRTVYNLADVACKCHGVSGSCSLKTCWLQLADFRKVGDALKEKYDSAAAMRLNSRGKLVQVNSRFNSPTTQDLVYIDPSPDYCVRNESTGSLGTQGRLCNKTSEGMDGCELMCCGRGYDQFKTVQTERCHCKFHWCCYVKCKKCTEIVDQFVCK",β-catenin level and asymmetry in the growth cone,β-catenin,increased the levels of β-catenin throughout the growth cone
same,p-Jun level,JNK,increased
same,time of Fzd3-EGFP internalization,"Fzd3; high concentration (200 ng/ml), batch #1",15 minute and two hour
same,time of Fzd3-EGFP internalization,"Fzd3; high concentration, batch #2",15 min and 60 min
same,time of Fzd3-EGFP internalization,"Fzd3; low concentration (100 ng/ml), batch #1",30 min
same,cell surface levels of Fzd3,Fzd3; upon the addition of Wnt5a,reduction of cell surface levels of Fzd3
